The text below walks through data of patent US9657059B2, “Immune system modulators” (Canimguide Therapeutics AB, priority 2013, dated 2017).

The test system of one test is PBMCs from a healthy control. Kind of test: PBMC activation (CD69, CD71) by flow cytometry in RPMI plus 10% human AB serum. The class given is cell-based. As to conditions: 40 μg/mL; 24 hours. As to the method:
FIG. 41 is a series of graphs illustrating effects of modified peptides on activation of PBMCs from healthy control person. PBMCs were incubated with the peptides (40 μg/mL) for 24 hours in RPMI plus 10% human AB serum. Activation is determined as percentage of cells with enhanced marker CD69 using flow cytometry. FIG. 41A illustrates results of two experiments (410 and 412) performed for each peptide. FIG. 41B illustrates results of two experiments (414 and 416) performed for each peptide.
FIG. 42 is a series of graphs illustrating effects of the full length peptide P28R and the 6 amino acid central sequence (32230, FFVKLS, SEQ ID NO: 62) in culture medium containing normal human AB serum. Activation is determined as percentage of cells with enhanced marker CD69 or CD71 using flow cytometry. PBMCs were incubated with the peptides (40 μg/mL) for 24 hours in RPMI plus 10% human AB serum. FIG. 42A illustrates the results of two experiments (420 and 422) performed for each peptide. FIG. 42B illustrates the results of two experiments (424 and 426) performed for each peptide.
FIG. 46 is a series of graphs illustrating Effect of modified peptides on activation of PBMCs from healthy control person. […] PBMCs were incubated with the peptides (40 μg/mL) for 48 hours in RPMI plus 10% human AB serum.
Based on the positional scan data, it is contemplated that substitutions of SEQ ID NO: 2 can be useful in accordance with some embodiments herein for binding P3028, de-blocking the LFA-1 receptor from P3028-mediated inhibition (e.g. displacing bound P3028 peptide and P3028-structure containing molecules from the LFA-1 receptor), and/or stimulating immune cells. The activity of peptide P28R (SEQ ID NO: 2) and modifications of P28R was studied in a human ex vivo model using PBMCs from a healthy control human in short term cultures, and with PBMC activation measured as a percentage of cells with enhanced CD69 (see Example 37).
As P28R (SEQ ID NO: 2) can bind to P3028 and stimulate PBMC's from healthy controls in short term cultures, for example when in a culture medium comprising RPMI plus 10% normal human AB serum (see Example 37), it is contemplated that truncations of P28R in accordance with some embodiments herein can be useful for binding to inhibitors of any one or more of the peptides listed in Tables 1-4. Truncations of P28R were assessed for their ability to activate PBMC's (see Example 38). PBMCs were incubated with the peptides (40 μg/mL) for 24 hours in RPMI plus 10% human AB serum. PBMC activation was measured as percent cells with enhanced expression of either CD69 (FIG. 42A) or CD71 (FIG. 42B) using flow cytometry. […] However, PBMCs were also incubated with the peptides in cancer sera from dogs, or in caner sera from human cancer patients (see FIG. 43). […] As such, it is contemplated that in accordance with some embodiments herein, P28R, P28 core, or combinations of these peptides are useful for stimulating immune cells in the serum of a subject that has cancer.
Effects of modified peptides on the activation of PBMCs from a healthy control person were assessed (see Example 41). PBMCs were incubated with the peptides (40 μg/mL) for 48 hours in RPMI plus 10% human AB serum, and PBMC activation was determined by flow cytometry based on the percentage of cells with enhanced marker CD69 or CD71. Peptides P28R (SEQ ID NO: 2), P28 core (peptide 32230) (SEQ ID NO: 62), 32251 ([…]) (SEQ ID NO: 592), 32814 ([…]) (SEQ ID NO: 586), 32815 ([…]) (SEQ ID NO: 595), 32665 ([…]) (SEQ ID NO: 593), and 32819 ([…](C(PEG24))) (SEQ ID NO: 594) were tested. […] Accordingly, it is contemplated herein that
KSLDTFFVKLSLFTER [compound 30864]: the “PBMC activation, cells with enhanced CD69” value (from here on “PBMC activation, cells”) is given as “did not stimulate”.

Regarding KKLDTFFVNLSLFTER [compound 31136], the “PBMC activation, cells” value is on record as “did not stimulate”.

For KKLDTFFVKLSLFTFR [compound 30685], the “PBMC activation, cells” value is given as “did not stimulate”.

With KKLDTFFVDLSLFTER [compound 31138], the “PBMC activation, cells” value is “did not stimulate”.

A further test has as its target P3028 (SEQ ID NO: 185) (Homo sapiens, UniProt P02768). The test is described as follows: PEPSCAN (rampo) ELISA: binding of His-tagged P3028 to P28R variants on chip. As to conditions: truncations, deletions, glycine substitutions (FIG. 29, 30). The protocol: Based on the structure of peptide P28R, additional peptides were identified that bind to P3028. The additional binders included deletions, truncations, and or amino acid substitutions of peptide P28R. Binding of peptides to P3028 was assayed using PEPSCAN technology. PEPSCAN technology, or “rampo” assays are biochemical binding assays, details of which are provided below:
A peptide microarray screening technology was used to measure binding of P28R (SEQ ID NO: 2) and variants of P28R to P3028 (SEQ ID NO: 185). In this technology libraries of synthetic peptides are synthesized and covalently linked onto polypropylene microarray chips. The linear peptides were synthesized onto credit-card format polypropylene cards (455 peptide formats/card) as described by (Timmerman et al., 2004) using standard Fmoc-chemistry using hexamethylenediamine (HMDA) as linker and deprotection using trifluoroacetic acid (TFA) with scavengers.
The binding of His-tagged P3028 to each peptide on the card was tested in an ELISA assay. The 455-well credit card format polypropylene cards containing the covalently linked peptides were incubated with His-tagged P3028 peptide (PGE73) solution consisting of 0.5 μg/mL diluted in blocking solution (4% horse serum, 5% ovalbumin (w/v) in PBS/1% TWEEN reagent). After washing, the peptides were incubated with a monoclonal mouse anti-His-tag antibody (Novagen, 70796-3, diluted 1/1000 in the incubation buffer) and subsequently after washing with a rabbit-anti-mouse antibody peroxidase (Rampo) conjugate (Southern Biotech, 6175-05, diluted 1/1000), for one hour at 25° C. After washing, the peroxidase substrate 2,2′-azine-di-3-ethylbenzthiazoline sulfonate (ABTS) and 2 μL of 3% H2O2 were added. The binding capacity of the mAb was measured as a color development at 405 nm (optical density, OD405). The color development was quantified with a charge-coupled device (CCD)—camera and an image processing system.
The OD405-values obtained by a CCD-camera was considered as raw data values (“rampo values,” “rampo units,” or “rampo scores”). The values mostly ranged from 0 to 3000, a log scale similar to 1 to 3 of a standard 96-well plate ELISA-reader. First the CCD-camera made a picture of the card before peroxidase coloring and then again a picture after the peroxidase coloring. […] These values were copied into an excel file and labeled as a raw data file. One follow-up manipulation was allowed. Sometimes a well can contain an air-bubble resulting in a false-positive value. If manual inspection of the cards detect an air-bubble the value are set to 0 for that well.
A library of peptides tested for binding to peptide P3028 included all substitutions for each position of the peptide P28R (SEQ ID NO: 2) (i.e., 19 substitutions for each position). The results of the binding experiments are shown in FIGS. 27, 28, 29 and 30 and Table 5.1. […] P28R had rampo values ranging between 262 and 460 with a mean value of 370. […] In addition, M and S in position 7 (SEQ ID NOs: 9 and 10, respectively), and Q and M in position 11 (SEQ ID NOs: 15 and 16, respectively) all have rampo values over 700.
For each position of P28R, the rampo scores of the group of 19 different peptides containing an L-amino acid substitution were compared to the rampo score of a control sample P28R peptide (SEQ ID NO: 2) for that group. Single-amino acid substitutions having a rampo score greater than or substantially equivalent to P28R were identified. […]
KKLDTFVKLSLFTER [SEQ ID NO: 65]: the “rampo score / binding to P3028 compared with P28R” value is “comparable to, or higher than peptide P28R”.

In the case of KKFFVKLSLFTER [SEQ ID NO: 76], the “rampo score / binding to P3028 compared with P28R” value is “comparable to, or higher than peptide P28R”.

As to KKLDTFFVKLSFTER [SEQ ID NO: 68], the “rampo score / binding to P3028 compared with P28R” value was “comparable to, or higher than peptide P28R”.

In a further test the target is P3028 (Homo sapiens, UniProt P02768). The test is described as follows: PEPSCAN rampo assay: binding of P3028 to support-bound peptides, sandwich ELISA. As to conditions: binding of P3028 to peptide on solid phase. The source says: Based on the ability of P28R to bind the P3028 sequence/structure, unblock the LFA-1 receptor, and ameliorate the P3028 sequence/structure-dependent immunosuppression, P28R was used as a template compound to identify additional compounds that bind to and sequester P3028. Variants of the P28R structure were synthesized, and tested for the ability to bind P3028 using PEPSCAN technology (see Example 12). A library of peptides that include each genetically-coded amino acid substitution at each amino acid position of P28R (i.e., 19 substitutions for each position) was synthesized. Each peptide was affixed to a support pin, and the peptide library was incubated with P3028. The binding of the candidate inhibitors to P3028 was detected by a sandwich ELISA, where a rabbit anti-mouse peroxidase (rampo) secondary antibody was employed (see Example 12). The binding of each peptide was then assigned a rampo score (see FIG. 27). Peptide P28R had rampo values ranging between about 262 and 460 with a mean value of 370. In some embodiments, the immunoregulatory peptide inhibitor as disclosed herein, is selected for a desired P3028 binding rampo score. In some embodiments, the desired P3028 binding rampo score is greater than or equal to the rampo score of P28R. It is also contemplated that some peptides that bind to P3028 with less affinity than P28R have therapeutic application. Some peptides with binding affinities that are less than P28R, for example, may modulate signal transduction events differently than P28R by virtue of the fact that the affinity to P3028 is less. […] Accordingly, contemplated embodiments include peptides that bind with any affinity to P3028 (e.g., any one or more of the peptides provided in Table 5.1, preferably peptides that modulate the immune system (e.g., modulate, upregulate or down regulate a marker of the immune system or immunosuppression, such as reducing a P3028-mediated inhibition of immune cell proliferation, spreading, migration, or NK-cell cytotoxicity).
It is contemplated that inhibitors of any one or more of the peptides listed in Tables 1-4 can comprise modifications of the P28R (SEQ ID NO: 2) or P28 core (SEQ ID NO: 62) sequence, and further can be useful for reducing inhibition of the LFA-1 receptor, or for stimulating immune cells. To identify modification to inhibitor peptides in accordance with some embodiments herein, positional scan data was used to study the influence of substitution of different types of amino acids in each position of P28R (SEQ ID NO: 2) on the binding of P3028 (SEQ ID NO: 185). Each amino acid in the peptide sequence of P28R (SEQ ID NO: 2) was exchanged with all of the naturally occurring amino acids, and binding of P3028 (SEQ ID NO: 185) to each peptide on a solid phase chip was assessed (see, e.g. Example 36). A number of optional modifications to P28R in accordance with embodiments herein are summarized in Tables 5.3, 5.4, 5.5, 5.6, and 13. Optionally, an inhibitor peptide in accordance with some embodiments herein can comprise one or more of the modifications of Table 5.3 or Table 13. Optionally, an inhibitor peptide comprises a central core of positions 2, 5-11, and 15 as provided in Table 5.3, and the remaining position are omitted or substituted with substantially any amino acid. Optionally, an inhibitor peptide comprises a central core of positions K2, T5-S11, and E15 of SEQ ID NO: 2, and the remaining position are omitted or substituted with substantially any amino acid.
Embodiments of the invention also include immunoregulatory peptide inhibitors that have a specific affinity to P3028 sequences or structures. In some embodiments, the immunoregulatory peptide inhibitors have specific affinity to P3028 sequences or structures as measured by a rampo assay in which the immunoregulatory peptide inhibitors are affixed to a solid phase, P3028 is added, and the enzymatic activity of a rampo secondary antibody is measured so as to detect binding (see Example 12). […]
In the case of 516 (KKLDTFFVKLSLFTER) [compound 516], the “RAMPO Score” value amounted to 260.

In the case of 400 (KKLDTFFVKLSLFTER) [compound 400], the “RAMPO Score” value is on record as 437.

With 398 (KKLDTFFVKLSLFTER) [compound 398], the “RAMPO Score” value is reported as 445.

For the substance 406 (KKLDTFFVKLSLFTER) [compound 406], the “RAMPO Score” value is on record as 424.

In the case of 403 (KKLDTFFVKLSLFTER) [compound 403], the “RAMPO Score” value is 428.

With 427 (KKLDTFFVKLSLFTER) [compound 427], the “RAMPO Score” value turned out to be 377.

With 442 (KKLDTFFVKLSLFTER) [compound 442], the “RAMPO Score” value was found to be 348.

On to 408 (KKLDTFFVKLSLFTER) [compound 408], for which the “RAMPO Score” value is 414.

487 (KKLDTFFVKLSLFTER) [compound 487]: the “RAMPO Score” value stood at 308.

476 (KKLDTFFVKLSLFTER) [compound 476]: the “RAMPO Score” value stood at 319.

Consider 414 (KKLDTFFVKLSLFTER) [compound 414], for which the “RAMPO Score” value worked out at 402.

Consider 399 (KKLDTFFVKLSLFTER) [compound 399], for which the “RAMPO Score” value is on record as 442.

Take 428 (KKLDTFFVKLSLFTER) [compound 428]: the “RAMPO Score” value was found to be 375.

396 (KKLDTFFVKLSLFTER) [compound 396]: the “RAMPO Score” value is on record as 460.

430 (KKLDTFFVKLSLFTER) [compound 430]: the “RAMPO Score” value is listed as 371.
